This is an account of results in US20110318353A1 (Janssen / Centocor, published 2011).

The target in experiment [1] is T1, human IL-25 (human, UniProt Q9H293 33-177).
T1 sequence: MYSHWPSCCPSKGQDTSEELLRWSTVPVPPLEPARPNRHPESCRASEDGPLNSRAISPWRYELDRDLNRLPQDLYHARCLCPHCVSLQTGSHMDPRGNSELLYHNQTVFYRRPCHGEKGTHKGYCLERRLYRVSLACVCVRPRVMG
In words: Receptor inhibition (column sub-head 'Panel A/ B'): bead-based ECLIA, inhibition of IL-25 binding to the IL-25 receptor. The text has this: (§1) The Fabs were converted to mAbs as follows. A combinatorial library of 5 different light chains and 5 different heavy chains (including the huDDG91 light and heavy chains) was designed. The light and heavy chains used in the library differed from one another in the light chain CDR1 and CDR3 amino acid sequences and the heavy chain CDR 3 sequence. Using these light and heavy chains, a total of 25 mAbs (IgG1) were constructed, expressed in HEK293 cells at small scale and purified. Each of the mAbs was tested for IL-25 binding affinity, cellular inhibition, and receptor inhibition as follows: [0149] IL-25 binding affinity was determined using standard IL-25 ELISA and Biacore binding assays. […] Cellular inhibition was assessed using a standard TK-10 human renal carcinoma cell-based assay (IL-25 responsive; IL-25 and IL-8 readout; capable of discerning difference between soluble IL-25R and parental mAb) and a CD4+ T cell-based assay. […] Receptor inhibition was assessed using a modified bead-based electrochemiluminescence immunoassay (ECLIA). Candidates causing a greater than 3-fold decrease in IC₅₀ of IL-25 binding to receptor relative to parental huDDG91 antibody at a 10 nM mAb concentration were selected.

Experiment [2] deals with T1, human IL-25. As to the kind of experiment: Biacore, 7200 sec dissociation.
From the text: as §1
In general terms: SPR reads the build-up and loss of mass on a sensor chip optically.

The target in experiment [3] is T1, human IL-25.
Experiment [4] addresses T1, human IL-25. As to the kind of experiment: cell-based or functional assay.
A further experiment addresses T2, cynomolgus monkey IL-25 (cynomolgus monkey, UniProt G7P9V9 33-176).
T2 construct: also called cynoIL-25; cyno IL-25
T2 sequence: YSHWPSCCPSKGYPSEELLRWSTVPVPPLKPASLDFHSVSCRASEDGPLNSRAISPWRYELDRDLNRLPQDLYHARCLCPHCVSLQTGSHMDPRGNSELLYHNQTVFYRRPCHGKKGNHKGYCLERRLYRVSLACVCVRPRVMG
In words: species cross-reactivity criterion; method not stated.

For experiment [5], the target named is T1, human IL-25. As to the kind of experiment: receptor inhibition: IL-25 binding to receptor, bead-based ECLIA.
The target in experiment [6] is T1, human IL-25. In words: Receptor inhibition (column sub-head 'Panel A/ B'): bead-based ECLIA, inhibition of IL-25 binding to the IL-25 receptor; upper end of the range.
From the text: as §1

Experiment [7] deals with T1, human IL-25. In words: Biacore, 7200 sec dissociation; first R71V G1 row.
From the text: as §1

Experiment [8] deals with T1, human IL-25. In words: Biacore, 7200 sec dissociation; second R71V G1 row, printed in italics = number from a different data set.
The target of experiment [9] is T1, human IL-25. In words: Receptor inhibition (column sub-head 'Panel A/ B'): bead-based ECLIA, inhibition of IL-25 binding to the IL-25 receptor; lower end of the range.
From the text: as §1

Experiment [10] has as its target T1, human IL-25. In words: Biacore, 7200 sec dissociation; printed in italics = number from a different data set.

Like-named read-outs stand apart in the source and are kept apart here.

For IL-17BR (receptor), the 50% inhibitory concentration (IC50) (usually the point on the concentration scale where inhibition reaches its midpoint) with human IL-25 [1] came to 0.063 nM. For the same molecule, the dissociation constant (Kd) – broadly, the equilibrium constant for the complex coming apart – in the experiment with human IL-25 [2] is 0.017 nM. Further, the Cellular inhibition, fold change in the experiment with human IL-25 [3] was 1 fold change.

B1: M6 antibody (antibody, human IgG1, kappa, V domains shown)
VH: EVQLVESGAEVKKPGASVKVSCKASGYSFSGYTMNWVRQAPGQRLEWMGLINPYNGGTSYNQNFKGRVTLTVDTSASTAYLELNSLRSEDTGVYYCAREDYDGYLYFAMDYWGQGTLVTVSS
VL: DIQMTQSPSSLSASVGDRVTITCSASQGISNYLNWYQQKPGKVPKLLIYYTSSLHSGVPSRFSGSGSGTDFTLTISSLQPEDVATYYCQQYLAFPYTFGQGTKLEIKR
notes: Humanized IgG1 mAb with kappa light chain, a variant of huDDG91 with three substitutions in light chain CDR3
For B1, the IC50 in the experiment with human IL-25 [1] turned out to be 0.012 nM. Besides, the “Cellular inhibition, fold change” value with human IL-25 [4] turned out to be 4 fold change. This molecule returned a Kd with human IL-25 [2] of 0.053 nM. Also, the “affinity relative to that for human IL-25” value in the experiment with cynomolgus monkey IL-25 was at most 5 fold. Also, the “fold decrease in IC50 compared to huDDG91” value with human IL-25 [5] was above 3 fold.

B2: huDDG91 antibody (antibody, V domains shown)
VH: EVQLVESGAEVKKPGASVKVSCKASGYSFSGYTMNWVRQAPGQRLEWMGLINPYNGGTSYNQNFKGRVTLTVDTSASTAYLELNSLRSEDTGVYYCAREDYDGYLYFAMDYWGQGTLVTVS
VL: DIQMTQSPSSLSASVGDRVTITCSASQGISNYLNWYQQKPGKVPKLLIYYTSSLHSGVPSRFSGSGSGTDFTLTISSLQPEDVATYYCQQYSKLPYTFGQGTKLEIK
notes: Humanized (CDR-grafted) version of murine 2C3; also called RH2.5_R71V; M9
As for B2, the IC50 with human IL-25 [6] is at most 0.0643 nM; in the experiment with human IL-25 [9] it was at least 0.0452 nM. The Kd with human IL-25 [7] was 0.194 nM; with human IL-25 [8], 0.136 nM.

B3: I25M34 (antibody, V domains shown)
VH: EVQLVESGAEVKKPGASVKVSCKASGYSFSGYTMNWVRQAPGQRLEWMGLINPYNGGTSYNQNFKGRVTLTVDTSASTAYLELNSLRSEDTGVYYCAREDFDSWTYFAMDYWGQGTLVTVS
VL: DIQMTQSPSSLSASVGDRVTITCSASQGINEYLNWYQQKPGKVPKLLIYYTSSLHSGVPSRFSGSGSGTDFTLTISSLQPEDVATYYCQQYINFPYTFGQGTKLEIK
notes: One of the 9 candidate IgG1 mAbs of the combinatorial library based on huDDG91
B3: the IC50 in the experiment with human IL-25 [1] is 0.013 nM. Also, the “Cellular inhibition, fold change” value with human IL-25 [4] amounted to 7 fold change. The molecule further registered a Kd in the experiment with human IL-25 [2] of 0.064 nM.

B4: I25M28 (antibody, V domains shown)
VH: EVQLVESGAEVKKPGASVKVSCKASGYSFSGYTMNWVRQAPGQRLEWMGLINPYNGGTSYNQNFKGRVTLTVDTSASTAYLELNSLRSEDTGVYYCAREDFDSWTYFAMDYWGQGTLVTVS
VL: DIQMTQSPSSLSASVGDRVTITCSASQGISNYLNWYQQKPGKVPKLLIYYTSSLHSGVPSRFSGSGSGTDFTLTISSLQPEDVATYYCQQYLAFPYTFGQGTKLEIK
notes: as for B3
B4: the half-inhibitory concentration (IC50) with human IL-25 [1] turned out to be 0.014 nM. For the same molecule, in the experiment with human IL-25 [4], the “Cellular inhibition, fold change” value is 16 fold change. Moreover, the dissociation constant Kd with human IL-25 [2] is 0.019 nM.

B5: I25M20 (antibody, V domains shown)
VH: EVQLVESGAEVKKPGASVKVSCKASGYSFSGYTMNWVRQAPGQRLEWMGLINPYNGGTSYNQNFKGRVTLTVDTSASTAYLELNSLRSEDTGVYYCAREDYDSWTFFAMDYWGQGTLVTVS
VL: DIQMTQSPSSLSASVGDRVTITCSASQGISNYLNWYQQKPGKVPKLLIYYTSSLHSGVPSRFSGSGSGTDFTLTISSLQPEDVATYYCQQYLAFPYTFGQGTKLEIK
notes: as for B3
Take B5: the IC50 with human IL-25 [1] is 0.013 nM. In addition, the “Cellular inhibition, fold change” value with human IL-25 [4] was determined as 20 fold change. Also, the Kd with human IL-25 [10] came to 0.045 nM.

B6: I25M31 (antibody, V domains shown)
VH: EVQLVESGAEVKKPGASVKVSCKASGYSFSGYTMNWVRQAPGQRLEWMGLINPYNGGTSYNQNFKGRVTLTVDTSASTAYLELNSLRSEDTGVYYCAREDFDSWTYFAMDYWGQGTLVTVS
VL: DIQMTQSPSSLSASVGDRVTITCSASQGISNYLNWYQQKPGKVPKLLIYYTSSLHSGVPSRFSGSGSGTDFTLTISSLQPEDVATYYCQQYSKLPYTFGQGTKLEIK
notes: as for B3
In the experiment with human IL-25 [1], B6 showed an IC50 of 0.018 nM. Moreover, in the experiment with human IL-25 [4], the “Cellular inhibition, fold change” value came out at 12 fold change. The same molecule had a Kd in the experiment with human IL-25 [2] of 0.04 nM.

B7: I25M10 (antibody, V domains shown)
VH: EVQLVESGAEVKKPGASVKVSCKASGYSFSGYTMNWVRQAPGQRLEWMGLINPYNGGTSYNQNFKGRVTLTVDTSASTAYLELNSLRSEDTGVYYCAREDFDSWTFFAMDYWGQGTLVTVS
VL: DIQMTQSPSSLSASVGDRVTITCSASQGISNYLNWYQQKPGKVPKLLIYYTSSLHSGVPSRFSGSGSGTDFTLTISSLQPEDVATYYCQQYLAFPYTFGQGTKLEIK
notes: as for B3
Consider B7, for which the IC50 with human IL-25 [1] was 0.014 nM. Further, the “Cellular inhibition, fold change” value with human IL-25 [4] came out at 5 fold change. In the experiment with human IL-25 [2], this molecule returned a Kd of 0.036 nM.

B8: I25M32 (antibody, V domains shown)
VH: EVQLVESGAEVKKPGASVKVSCKASGYSFSGYTMNWVRQAPGQRLEWMGLINPYNGGTSYNQNFKGRVTLTVDTSASTAYLELNSLRSEDTGVYYCAREDYDSWTFFAMDYWGQGTLVTVS
VL: DIQMTQSPSSLSASVGDRVTITCSASQGINEYLNWYQQKPGKVPKLLIYYTSSLHSGVPSRFSGSGSGTDFTLTISSLQPEDVATYYCQQYINFPYTFGQGTKLEIK
notes: as for B3
Molecule B8 gave a half-maximal inhibitory concentration (IC50) with human IL-25 [1] of 0.011 nM. The “Cellular inhibition, fold change” value with human IL-25 [4] was found to be 4 fold change. Also, the Kd in the experiment with human IL-25 [2] stood at 0.087 nM.

B9: I25M11 (antibody, V domains shown)
VH: EVQLVESGAEVKKPGASVKVSCKASGYSFSGYTMNWVRQAPGQRLEWMGLINPYNGGTSYNQNFKGRVTLTVDTSASTAYLELNSLRSEDTGVYYCAREDFDSWTFFAMDYWGQGTLVTVS
VL: DIQMTQSPSSLSASVGDRVTITCSASQGIASFLNWYQQKPGKVPKLLIYYTSSLHSGVPSRFSGSGSGTDFTLTISSLQPEDVATYYCQQYSSFPYTFGQGTKLEIK
notes: as for B3
The molecule B9 came in with a 50% inhibitory concentration (IC50) with human IL-25 [1] of 0.014 nM. Besides, in the experiment with human IL-25 [4], the “Cellular inhibition, fold change” value turned out to be 5 fold change. Moreover, in the experiment with human IL-25 [2], binding was put at a Kd of 0.057 nM.

B10: I25M30 (antibody, V domains shown)
VH: EVQLVESGAEVKKPGASVKVSCKASGYSFSGYTMNWVRQAPGQRLEWMGLINPYNGGTSYNQNFKGRVTLTVDTSASTAYLELNSLRSEDTGVYYCAREDFDSWTYFAMDYWGQGTLVTVS
VL: DIQMTQSPSSLSASVGDRVTITCSASQGIHWNLNWYQQKPGKVPKLLIYYTSSLHSGVPSRFSGSGSGTDFTLTISSLQPEDVATYYCQQFNSFPYTFGQGTKLEIK
notes: as for B3
In the experiment with human IL-25 [1], B10 returned an IC50 of 0.02 nM. Besides, the “Cellular inhibition, fold change” value in the experiment with human IL-25 [4] amounted to 3 fold change. This molecule showed a Kd in the experiment with human IL-25 [2] of 0.044 nM.
